Molecular target: VDRE-BP (NWP nuclear VDRE binding protein, B95-8 nuclear extract) (UniProt Q9TTV2)
Experiment: competition
Details: 100-fold excess unlabeled competitor

Chain of VDRE-BP (NWP nuclear VDRE binding protein, B95-8 nuclear extract) (Q9TTV2 whole entry): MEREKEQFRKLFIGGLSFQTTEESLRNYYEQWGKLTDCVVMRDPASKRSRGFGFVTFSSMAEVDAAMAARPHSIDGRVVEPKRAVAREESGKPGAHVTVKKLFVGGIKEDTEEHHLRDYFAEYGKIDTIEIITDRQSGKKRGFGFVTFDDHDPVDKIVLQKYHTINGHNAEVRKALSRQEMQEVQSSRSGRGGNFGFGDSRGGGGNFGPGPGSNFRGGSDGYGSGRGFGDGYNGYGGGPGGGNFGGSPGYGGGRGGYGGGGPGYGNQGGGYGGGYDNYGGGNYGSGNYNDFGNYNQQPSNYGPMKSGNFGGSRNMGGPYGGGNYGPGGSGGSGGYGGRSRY

AGGTCA direct repeat, 3 bp spacer
binding signal (% decrease of opVDRE band): 64

GGTTCA direct repeat, 3 bp spacer
binding signal (% decrease of opVDRE band): 61

— patent US5994504
